Article PMC6588460

Molecular target: AKAP95 (human (endogenous in HEK293T)) (UniProt O43823)
Assay: proximity ligation

Chain of UniProt O43823 (O43823 whole entry): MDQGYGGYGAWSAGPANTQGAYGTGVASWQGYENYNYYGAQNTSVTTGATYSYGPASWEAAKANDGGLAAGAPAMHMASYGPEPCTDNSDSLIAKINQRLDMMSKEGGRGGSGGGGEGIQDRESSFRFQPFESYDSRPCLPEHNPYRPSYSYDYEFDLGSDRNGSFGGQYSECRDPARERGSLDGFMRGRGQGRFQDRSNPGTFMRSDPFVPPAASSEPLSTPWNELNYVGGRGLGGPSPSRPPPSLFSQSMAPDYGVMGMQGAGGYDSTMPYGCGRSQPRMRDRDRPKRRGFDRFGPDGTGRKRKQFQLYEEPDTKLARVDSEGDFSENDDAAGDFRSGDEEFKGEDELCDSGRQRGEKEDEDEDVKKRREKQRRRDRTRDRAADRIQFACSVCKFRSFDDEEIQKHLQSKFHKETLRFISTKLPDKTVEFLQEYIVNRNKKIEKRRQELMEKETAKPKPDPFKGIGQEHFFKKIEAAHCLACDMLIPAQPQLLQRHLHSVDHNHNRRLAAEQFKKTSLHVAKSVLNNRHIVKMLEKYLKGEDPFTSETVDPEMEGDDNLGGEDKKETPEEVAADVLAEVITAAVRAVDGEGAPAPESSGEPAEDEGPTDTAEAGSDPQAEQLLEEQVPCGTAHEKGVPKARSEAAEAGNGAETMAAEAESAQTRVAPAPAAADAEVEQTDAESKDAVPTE

- PLA dots per nuclei (dots per nuclei): 3.8
Substance: PDE4D5 (enzyme)
